Results as given in US11795454B2, “Targeted delivery system” (Cedars-Sinai Medical Center, priority 2009, dated 2023).
Entries after “also recorded” stand apart in the source; their conditions may differ.

B1: HerDox: self-assembled nanoparticle of oligonucleotide duplex, doxorubicin and HerPBK10 (conjugate)
chain: LPPRLKEMKSQESAAGSKLVLRCETSSEYSSLRFKWFKNGNELNRKNKPQNIKIQKKPGKSELRINKASLADSGEYMCKVISKLGNDSASANITIVESNEIITGMPASTEGAYVSSESPIRISVSTEGANTSSSTSTSTTGTSHLVKCAEKEKTFCVNGGECFMVKDLSNPSRYLCKCQPGFTGARCTENVPMKVQNQEKAEELYMRRAAMYEEGPPPSYESVVSAAPVAAALGSPFDAPLDPPFVPPRYLRPTGGRNSIRYSELAPLFDTTRVYLVDNKSTDVASLNYQNDHSNFLTTVIQNNDYSPGEASTQTINLDDRSHWGGDLKTILHTNMPNVNEFMFTNKFKARVMVSRLPTKDNQVELKYEWVEFTLPEGNYSETMTIDLMNNAIVEHYLKVGRQNGVLESDIGVKFDTRNFRLGFDPVTGLVMPGVYTNEAFHPDIILLPGCGVDFTHSRLSNLLGIRKRQPFQEGFRITYDDLEGGNIPALLDVDAYQASLKDDTEQGGGGAGGSNSSGSGAEENSNAAAAAMQPVEDMNDHAIRGDTFATRAEEKRAEAEAAAEAAAPAAQPEVEKPQKKPVIKPLTEDSKKRSYNLISNDSTFTQYRSWYLAYNYGDPQTGIRSWTLLCTPDVTCGSEQVYWSLPDMMQDPVTFRSTRQISNFPVVGAELLPVHSKSFYNDQAVYSQLIRQFTSLTHVFNRFPENQILARPPAPTITTVSENVPALTDHGTLPLRNSIGGVQRVTITDARRRTCPYVYKALGIVSPRVLSSRTFKKKKKKKKKK

Assays:
[1] = test system: U87 human glioma tumors
Procedure: (§1) FIG. 29A, Live mouse imaging of HerDox at indicated time points after injection. Arrows, Tumors. 29B-29C, Comparative biodistribution of HerDox and Dox in tissues harvested at 3 h post-injection. FIG. 29B, Imaging of biodistribution in harvested tissues. Pseudocolored FI corresponds to the color bar. Max, highest FI. FIG. 29C, Quantification of HerDox and Dox biodistribution, showing Dox FI/tissue. FIG. 29D. Comparative pharmacokinetics of HerDox and Dox in mice with tumors expressing differential HER2. Tissues were harvested from independently injected mice euthanized at indicated time points after injection and FI/tissue acquired using a small animal imaging system as described herein.
(§2) Heart rate and body temperature were monitored. […] Three beats were averaged for each measurement.
A customized macro-illumination and detection system was used for in vivo and tissue imaging. Dox was excited with the 488 nm line of a Coherent Innova ArKr laser. […] Fluorescence light was collected via a telecentric lens (Melles-Griot 59LGG925 base lens with a 59LGL428 attachment lens) that can operate at f/#2, has a magnification of 0.9, working distance of 257 mm and a depth of field of 81.5 mm. […] ImageJ was used to calculate average fluorescence intensities of the overall region of each selected tissue. […]

[2] = test system: MDA-MB-435 (HER2+) cells; assay: HerDox targeted toxicity in vitro, separate cultures; type: cell-based, human; conditions: MDA-MB-435, day 3
Procedure: (§3) All treatments, N=3. FIG. 27A. Comparing cytotoxicity to HER2+ (MDAMB-435) and HER2− (MDA-MB-231) cells in separate cultures. Left, Relative survival (as % of untreated cells) on day 3 of treatment. Right, Micrograph of live cells after treatment. Control, mock (HBS) treatment. FIG. 27B, Receptor specificity of cytotoxicity. […] FIG. 27C, Toxicity to cells displaying differential HER2. Cytotoxicities from HerDox titrations were assessed on each cell line by metabolic assay and confirmed by crystal violet stain on day 3 of treatment. CD50 values (shown in log scale) were determined by non-linear regression analyses of HerDox killing curves using GraphPad Prism. The relative HER2 level of each cell line is shown next to each CD50 value. FIG. 27D, Targeting in a mixed MDA-MB-435(HER2+,GFP−)/MDA-MB-231(HER2−,GFP+) cell culture. Survival was determined by calculating the relative doubling time (DT) of experimental (exp) cells normalized by mock-treated (con) cells based on crystal violet stains (total cells) and GFP fluorescence (MDAMB-231 cells), and applying DTMDA-MB-435=DTTotal-DTMDA-MB-231 as previously described. Relative survival is shown for Day 2 of treatment. FIG. 27E, Targeted glioma cell death in vitro. U251 cells were treated once with the indicated HerDox (and competitive inhibitor where indicated) or Dox doses and measured for cell survival at the indicated time points after treatment. * P<0.05 compared to Mock.
For all in vitro treatments, cell lines were grown for ˜36 h after plating (104/well in 96-well dishes) to allow receptor re-expression, followed by media replacement with new media containing indicated constructs in reduced volume at the indicated final molarities for 4 h with rocking, followed by supplementation with additional media and continued growth for the indicated time periods. Except for the experiments performed on the U251 glioma cells (which received a one-time treatment), cells received these treatments daily while separate sets of wells were assessed for cell death by either metabolic assay (CellTiter Promega Corporation, Madison, WI, USA) or crystal violet stain each day. Where indicated, cells received competitive inhibitor (eHRG) at 10× molar excess for 30 min-1 h at 4° C. before treatment. Treatment of mixed (HER2+/HER2−) cell cultures with HerDox or Dox (0.5 uM), and cell surface receptor subunit level determination were performed as previously described.

[3] = test system: U251 human glioma cells; assay: Targeted glioma cell death in vitro; type: cell-based; conditions: single dose
Procedure: as §3, with “FIG. 27E, Targeted glioma cell death in vitro.” left out, “Mock. […]” for “Mock.”

[4] = test system: MDA-MB-435 tumors; assay: HerDox/Dox tumor targeting, biodistribution and pharmacokinetics by fluorescence imaging
Procedure: Tumor-bearing mice were injected with 0.02 mg/kg (final Dox dose) of HerDox or Dox via the tail vein and imaged with a custom small animal imager. FIG. 19A, Imaging of live mice after TV delivery of HerDox. Time points are shown as minutes after injection. Tumors are indicated by arrows. FIG. 19B, Imaging of tumors and tissues harvested at 3 h after injection of HerDox or Dox. Fluorescence signal from Dox is pseudo-colored according to the color bar, with a shift toward 100 indicating high fluorescence intensity.
as §1
Mice received a single tail vein injection of Dox alone or the complex (HerDox) (0.02 mg/kg with respect to Dox conc) and were imaged live using a customized macro-illumination and detection system.
as §2
A customized macro-illumination and detection system was used for in vivo and tissue imaging. Dox was excited with the 488 nm line of a Coherent Innova ArKr laser. Laser light (300 mW) was directed into a light-tight box via mirrors and expanded by an engineered circular tophat diffuser (Thorlabs ED1-C20) to a uniform circular beam of approximately 15 cm in diameter. The incidence angle to the vertical plane was approximately 150. Fluorescence light was collected via a telecentric lens (Melles-Griot 59LGG925 base lens with a 59LGL428 attachment lens) that can operate at f/#2, has a magnification of 0.9, working distance of 257 mm and a depth of field of 81.5 mm. A bandpass filter (580 nm with a 50 nm bandwidth) was used in the emission pathway to reject the excitation light. Images showing FI were collected with a cooled CCD camera (Hamamatsu ORCA-ER). Where indicated, a Maestro imager was used (Cedars-Sinai Imaging Core Facility). ImageJ was used to calculate average fluorescence intensities of the overall region of each selected tissue.
MDA-MB-435 tumor-bearing mice were imaged live after a single tail vein injection of HerDox, in order to visualize tumor-targeting ability in vivo.

[5] = test system: MDA-MB-435 cells; assay: Uptake and intracellular trafficking, confocal fluorescence microscopy; type: cell-based, human; conditions: 0.5 uM final Dox concentration
Procedure: FIG. 28A. […] Dox fluorescence (magenta) is overlaid on DIC images. FIG. 28D. […] Relaxed (nicked) and supercoiled (sc) plasmid forms are indicated.
General procedures: MDA-MB-435 cells were plated ˜36 h before receiving HerDox or Dox (0.5 uM final Dox concentration) in fresh media containing the indicated constructs. For live cell assays, the cells (plated in chambers) were imaged at the indicated time points after treatment, under brightfield or DIC (where indicated) and fluorescence modes to identify the cell structure and Dox fluorescence, respectively. For fixed cell assays, the cells were plated on cover slips in 24-well plates (1×10^5 cells/well) ˜36 h before receiving HerDox or Dox in fresh complete media at 37° C., and separate samples fixed and processed for immunofluorescence against HerPBK10 following established procedures. A Leica SP2 laser-scanning confocal fluorescence microscope was used for fixed and live cell imaging.
The ability to visualize nuclear Dox fluorescence after cell exposure to free Dox has been used frequently to detect Dox uptake in cells, and has been attributed to interaction with histones. To determine whether these localization differences indicate that Dox remains attached to HerPBK10 during uptake, the inventors used a counterstain for HerPBK10.

[6] = maximum FI, ˜3 h after injection
[7] = single tail vein injection, 0.02 mg/kg Dox

| Molecule | delivery to U87 tumors higher compared to MDA-MB-435 tumors ([1]; mouse, in vivo, iv) | toxicity / survival [2] | cell death [3] | fluorescence in the lungs and skeletal muscle ([4]; harvested ˜3 h after injection) | fluorescence in the kidneys ([4]; mouse, in vivo) | fluorescence in the liver ([4]; mouse, in vivo) | fluorescence in the tumors ([4]; mouse, in vivo) | tumor accumulated Dox lower compared to HerDox ([4]; mouse, in vivo) [fluorescence units] | subcellular localization of Dox fluorescence [5] | delivery to U87 tumors lower compared to MDA-MB-435 tumor-bearing mice ([1]; i.v.) [%] | fluorescence in heart, spleen, lungs, and skeletal muscle ([4]; harvested ˜3 h after injection) | fluorescence in the kidneys ([4]; harvested ˜3 h after injection) | fluorescence in the liver ([4]; harvested ˜3 h after injection) | fluorescence in the tumors ([4]; harvested ˜3 h after injection) | kidney FI lower than tumors [4, 6] [%] | liver FI lower than tumors [4, 6] [%] | time of kidney entry ([4]; pharmacokinetics, single i.v. injection) [min] | time detectable in the tumors after injection [4, 7] | time of accumulation at the tumors after injection [4, 7] [min] | tumor accumulation higher compared to normal tissue ([4]; up to 24 h, heart, liver, muscle, spleen, lung, kidneys) |
| --- | --- | --- | --- | --- | --- | --- | --- | --- | --- | --- | --- | --- | --- | --- | --- | --- | --- | --- | --- | --- |
| COc1cccc2c1C(=O)c1c(O)c3c(c(O)c1C2=O)C[C@@](O)(C(=O)CO)C[C@@H]3O[C@H]1C[C@H](N)[C@H](O)[C@H](C)O1.Cl [Dox, Doxorubicin-HCl, reference compound] | 200-300 fluorescence units per tissue | no preference | 75-80% | Lower levels of fluorescence | detectable fluorescence | detectable fluorescence | detectable fluorescence | 1000 | detectable at the nuclear periphery immediately after administration |  |  |  |  |  |  |  |  |  |  |  |
| B1 |  | significant toxicity | 96-99% |  |  |  |  |  | nuclear accumulation by 60 min | ~50 | did not exhibit any fluorescence; also recorded: no detectable fluorescence | barely detectable | substantially lower levels of fluorescence | intense fluorescence | 65 | 45 | ≤ 10 | up to 100 min | ≤ 20 | 500-1000 fluorescence units higher/tissue |
